fB Cleavage EC50 and fB Cleavage, 80% plasma EC50 data for 36 molecules are collected here from patent US20240117334A1, “FACTOR B PROTEASES” (Vertex Pharmaceuticals Incorporated, priority 2021, published 2024).

Where a chain is given by its changes, count along the chain named. Names and notes keep the numbering of the source.

B1: chymase C22S/D175N/A226R (enzyme)
chain: IIGGTESKPHSRPYMAYLEIVTSNGPSKFCGGFLIRRNFVLTAAHCAGRSITVTLGAHNITEEEDTWQKLEVIKQFRHPKYNTSTLHHDIMLLKLKEKASLTLAVGTLPFPSQFNFVPPGRMCRVAGWGRTGVLKPGSDTLQEVKLRLMDPQACSHFRNFDHNLQLCVGNPRKTKSAFKGDSGGPLLCAGVAQGIVSYGRSDAKPPRVFTRISHYRPWINQILQAN
B2: chymase C22S/S189T/A190S/F191S/A220L/A226R (enzyme)
chain: B1 chain with N159D, S176T, A177S, F178S, A203L
B3: chymase C22S/K40M/F41V/L99N/G151R/F173S/S218E/A226R (enzyme)
chain: B1 chain with K28M, F29V, L86N, G137R, F157S, N159D, S201E
B4: chymase C22S/K40M/F41R/L99Q/F173Y/D175R/S218I/A226R (enzyme)
chain: B1 chain with K28M, F29R, L86Q, F157Y, N159R, S201I
B5: chymase C22S/P38Q/V138I/A226R/F228A (enzyme)
chain: B1 chain with P26Q, V125I, N159D, F209A
B6: chymase C22S/P38Q/V213Q/A226R/F228A (enzyme)
chain: B1 chain with P26Q, N159D, V196Q, F209A
B7: chymase C22S/K40L/F41K/L99Q/F173Y/D175N/S218V/A226R (enzyme)
chain: B1 chain with K28L, F29K, L86Q, F157Y, S201V
B8: chymase C22S/P38Q/K40M/F41R/D175N/V213Q/S218V/A226R/F228A (enzyme)
chain: B1 chain with P26Q, K28M, F29R, V196Q, S201V, F209A
B9: chymase C22S/P38Q/K40A/F41R/L99H/D175N/V213Q/S218I/A226R/F228A (enzyme)
chain: B1 chain with P26Q, K28A, F29R, L86H, V196Q, S201I, F209A
B10: chymase C22S/A220S/A226R (enzyme)
chain: B1 chain with N159D, A203S
B11: chymase C22S/K40L/F41K/L99N/D175N/S218L/A226R (enzyme)
chain: B1 chain with K28L, F29K, L86N, S201L
B12: chymase C22S/K40M/F41R/L99Q/F173Y/D175R/S218V/A226R (enzyme)
chain: B1 chain with K28M, F29R, L86Q, F157Y, N159R, S201V
B13: chymase C22S/K40L/F41K/L99H/F173Y/D175S/S218I/A226R (enzyme)
chain: B1 chain with K28L, F29K, L86H, F157Y, N159S, S201I
B14: chymase C22S/P38Q/V138I/A190S/V213A/A226R (enzyme)
chain: B1 chain with P26Q, V125I, N159D, A177S, V196A
B15: chymase C22S/V138A/G145D/S189T/A190S/A226R (enzyme)
chain: B1 chain with V125A, G132D, N159D, S176T, A177S
B16: chymase C22S/K40L/F41K/L99N/F173Y/D175N/A226R (enzyme)
chain: B1 chain with K28L, F29K, L86N, F157Y
B17: chymase C22S/A226R/F228A (enzyme)
chain: B1 chain with N159D, F209A
B18: chymase C22S/V138T/A190S/V213A/A226R (enzyme)
chain: B1 chain with V125T, N159D, A177S, V196A
B19: chymase C22S/K40L/L99N/F173Y/D175N/S218L/A226R (enzyme)
chain: B1 chain with K28L, L86N, F157Y, S201L
B20: chymase C22S/K40L/F41R/L99H/F173Y/D175Y/S218I/A226R (enzyme)
chain: B1 chain with K28L, F29R, L86H, F157Y, N159Y, S201I
B21: chymase C22S/K40L/F41K/F173Y/D175N/S218L/A226R (enzyme)
chain: B1 chain with K28L, F29K, F157Y, S201L
B22: chymase C22S/V138A/S189T/A226R/F228M (enzyme)
chain: B1 chain with V125A, N159D, S176T, F209M
B23: chymase C22S/V138S/S189T/A226R/F228M (enzyme)
chain: B1 chain with V125S, N159D, S176T, F209M
B24: chymase C22S/K40M/F41K/F173Y/D175R/S218E/A226R (enzyme)
chain: B1 chain with K28M, F29K, F157Y, N159R, S201E
B25: chymase C22S/V138L/S189T/A190G/A226R (enzyme)
chain: B1 chain with V125L, N159D, S176T, A177G
B26: chymase C22S/K40M/F41R/L99H/F173Y/D175W/S218L/A226R (enzyme)
chain: B1 chain with K28M, F29R, L86H, F157Y, N159W, S201L
B27: chymase C22S/V138A/S189T/A226R (enzyme)
chain: B1 chain with V125A, N159D, S176T
B28: chymase C22S/P38Q/K40M/F41R/L99M/F173Y/D175N/V213Q/S218V/A226R/F228A (enzyme)
chain: B1 chain with P26Q, K28M, F29R, L86M, F157Y, V196Q, S201V, F209A
B29: chymase C22S/K40M/F41I/L99H/G151R/F173S/S218L/A226R (enzyme)
chain: B1 chain with K28M, F29I, L86H, G137R, F157S, N159D, S201L
B30: chymase C22S/V138A/A226R (enzyme)
chain: B1 chain with V125A, N159D
B31: chymase C22S/K40M/F41K/L99N/F173Y/D175R/S218T/A226R (enzyme)
chain: B1 chain with K28M, F29K, L86N, F157Y, N159R, S201T
B32: chymase C22S/F41K/L99N/F173Y/D175N/S218L/A226R (enzyme)
chain: B1 chain with F29K, L86N, F157Y, S201L
B33: chymase C22S/S189T/A226R/F228M (enzyme)
chain: B1 chain with N159D, S176T, F209M
B34: chymase C22S/K40L/F41R/L99G/F173Y/D175R/S218V/A226R (enzyme)
chain: B1 chain with K28L, F29R, L86G, F157Y, N159R, S201V
B35: chymase C22S/K40M/F41R/L99N/F173Y/D175S/S218L/A226R (enzyme)
chain: B1 chain with K28M, F29R, L86N, F157Y, N159S, S201L
B36: chymase C22S/P38Q/K40A/F41R/L99H/F173Y/D175Y/V213Q/S218V/A226R/F228A (enzyme)
chain: B1 chain with P26Q, K28A, F29R, L86H, F157Y, N159Y, V196Q, S201V, F209A

The target of the assay is Human Factor B (human) (UniProt P00751). The assay is described as follows: cell-based or functional assay.
Sequence of Human Factor B (human) (P00751 26-764 limits assumed): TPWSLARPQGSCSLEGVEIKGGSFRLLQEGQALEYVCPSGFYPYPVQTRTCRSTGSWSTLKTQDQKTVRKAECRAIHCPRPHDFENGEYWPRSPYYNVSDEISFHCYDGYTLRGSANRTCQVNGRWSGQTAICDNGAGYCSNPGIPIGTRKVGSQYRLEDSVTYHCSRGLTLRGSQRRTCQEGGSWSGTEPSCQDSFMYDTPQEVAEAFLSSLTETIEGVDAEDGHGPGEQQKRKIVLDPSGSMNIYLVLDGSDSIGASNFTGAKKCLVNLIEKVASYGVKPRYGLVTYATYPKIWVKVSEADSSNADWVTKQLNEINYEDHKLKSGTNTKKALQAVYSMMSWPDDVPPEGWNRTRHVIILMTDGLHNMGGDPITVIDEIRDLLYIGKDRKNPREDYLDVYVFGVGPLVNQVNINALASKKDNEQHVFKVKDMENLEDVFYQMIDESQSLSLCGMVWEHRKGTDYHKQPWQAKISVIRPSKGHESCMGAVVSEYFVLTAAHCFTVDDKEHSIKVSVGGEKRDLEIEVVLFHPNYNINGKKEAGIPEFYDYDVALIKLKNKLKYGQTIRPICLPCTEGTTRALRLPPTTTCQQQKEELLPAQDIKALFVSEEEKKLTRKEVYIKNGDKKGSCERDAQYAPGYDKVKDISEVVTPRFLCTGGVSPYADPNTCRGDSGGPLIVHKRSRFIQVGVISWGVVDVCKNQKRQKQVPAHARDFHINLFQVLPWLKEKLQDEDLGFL
The molecule B1 came in with a fB Cleavage EC50 of 564 nM and a fB Cleavage, 80% plasma EC50 of 7770 nM.

As for B2, the fB Cleavage EC50 came to 8140 nM. On to B3, for which the fB Cleavage EC50 was 11800 nM. The molecule B4 returned a fB Cleavage EC50 of 213 nM and a fB Cleavage, 80% plasma EC50 of 4480 nM. B5: the fB Cleavage EC50 turned out to be 12400 nM. As for B6, the fB Cleavage EC50 was 6210 nM. As to B7, the fB Cleavage EC50 came to 110 nM and the fB Cleavage, 80% plasma EC50 turned out to be 5670 nM. Regarding B8, the fB Cleavage EC50 stood at 932 nM.

Molecule B9 gave a fB Cleavage EC50 of 553 nM. Same read-out and setting: next, B10: 5560 nM; B11: 295 nM. On to B12, for which the fB Cleavage EC50 came to 235 nM and the fB Cleavage, 80% plasma EC50 was determined as 4070 nM. On the same counts, the results for B13 are 101 nM and 4620 nM. As to B14, the fB Cleavage EC50 is 1350 nM. Same read-out and setting: next, B15: 3810 nM; B16: 151 nM.

As for B17, the fB Cleavage EC50 stood at 5070 nM. On the same count and under the same terms, next, B18: 6710 nM; B19: 113 nM. B20 showed a fB Cleavage EC50 of 84 nM and a fB Cleavage, 80% plasma EC50 of 5560 nM. Regarding B21, the fB Cleavage EC50 was 77 nM.

B22 returned a fB Cleavage EC50 of 1770 nM. Still for that read-out and setting: next, B23: 2980 nM. Consider B24, for which the fB Cleavage EC50 was determined as 203 nM and the fB Cleavage, 80% plasma EC50 turned out to be 4130 nM. Take B25: the fB Cleavage EC50 was found to be 4160 nM. With B26, the fB Cleavage EC50 was determined as 181 nM and the fB Cleavage, 80% plasma EC50 turned out to be 7210 nM. B27 showed a fB Cleavage EC50 of 4420 nM.

With B28, the fB Cleavage EC50 stood at 788 nM. Molecule B29 had a fB Cleavage EC50 of 8200 nM. The molecule B30 returned a fB Cleavage EC50 of 2940 nM. As to B31, the fB Cleavage EC50 amounted to 216 nM and the fB Cleavage, 80% plasma EC50 was determined as 4130 nM. Regarding B32, the fB Cleavage EC50 stood at 77 nM. B33 returned a fB Cleavage EC50 of 1550 nM. For B34, the fB Cleavage EC50 stood at 333 nM and the fB Cleavage, 80% plasma EC50 was 8620 nM.

Molecule B35 registered a fB Cleavage EC50 of 230 nM and a fB Cleavage, 80% plasma EC50 of 5140 nM. Molecule B36 registered a fB Cleavage EC50 of 769 nM.
